Measured values taken from paper PMC10713552 (Communications Biology, 2023).
Where two headings read alike, the source gives them in different places.

Key:
Assay in all cases: BLI
[1] = molecular target: T1, D614G-Hexapro (WT) spike ectodomain (SARS-CoV-2 Wuhan-Hu-1 D614G, D614G)
[2] = molecular target: T2, Omicron BA.1 spike protein ectodomain (BLI) (SARS-CoV-2 Omicron BA.1, strain)
[3] = molecular target: T1, D614G-Hexapro (WT) spike ectodomain; conditions: both partners purified
[4] = molecular target: Omicron BA.5 spike protein ectodomain (BLI) (SARS-CoV-2 Omicron BA.5 (BA.4/5 spike), strain); conditions: both partners purified
[5] = molecular target: Omicron BA.2 spike protein ectodomain (BLI) (SARS-CoV-2, Omicron BA.2, strain); conditions: both partners purified
[6] = molecular target: Omicron BA.2.12 spike protein ectodomain (BLI) (SARS-CoV-2 Omicron BA.2.12.1, strain); conditions: both partners purified
[7] = molecular target: T2, Omicron BA.1 spike protein ectodomain …; conditions: both partners purified

| Binder | Kd [1] | koff [1] | kon [1] | Kd [2] | koff [2] | kon [2] | further results |
| --- | --- | --- | --- | --- | --- | --- | --- |
| N3-1_M (antibody, V domains shown, IgG1) VH: QVQLQQWGPGLVNPSETLSLTCSVSGGSFATENYYWSWIRQHPGEGLEWIGNIYFSGNTYYNPSLNNRFTISFDTSKNHLSLKLPSVTAADTAVYYCARGTIYFDMSGYRRVDPFHIWGQGTMVIVSS VL: not shown | 4420 nM | 0.00151 s⁻¹ | 342 M⁻¹ s⁻¹ | 33.2 nM | 0.00105 s⁻¹ | 31700 M⁻¹ s⁻¹ | Kd [3]: 4.22 nM; koff [3]: 0.000278 s⁻¹; kon [3]: 65900 M⁻¹ s⁻¹; Kd [4]: 172 nM; koff [4]: 0.00253 s⁻¹; kon [4]: 14700 M⁻¹ s⁻¹; Kd [5]: 178 nM; koff [5]: 0.00245 s⁻¹; kon [5]: 13800 M⁻¹ s⁻¹; Kd [6]: 28 nM; koff [6]: 0.000621 s⁻¹; kon [6]: 22200 M⁻¹ s⁻¹; Kd [7]: 428 nM; koff [7]: 0.00368 s⁻¹; kon [7]: 8590 M⁻¹ s⁻¹ |
| 0386-YN3_T65N (antibody, V domains shown, source: Expi293F, transfected) VH: QVQLQQWGPGLVNPSETLSLTCSVSGGSFATENYYWSWIRQHPGEGLEWIGNIYFSGNNYYNPSLNNRFTISFDTSKNHLSLKLPSVTAADTAVYYCARGTIYFDYSGYRRVDPFHIWGQGTMVIVSS VL: not shown | 8.83 nM | 0.00138 s⁻¹ | 156000 M⁻¹ s⁻¹ | 66.3 nM | 0.00052 s⁻¹ | 7850 M⁻¹ s⁻¹ |  |
| 0379-YN3_T65F (antibody, V domains shown, source: Expi293F, transfected) VH: QVQLQQWGPGLVNPSETLSLTCSVSGGSFATENYYWSWIRQHPGEGLEWIGNIYFSGNFYYNPSLNNRFTISFDTSKNHLSLKLPSVTAADTAVYYCARGTIYFDYSGYRRVDPFHIWGQGTMVIVSS VL: not shown | 2000 nM | 0.000202 s⁻¹ | 101 M⁻¹ s⁻¹ | 89.3 nM | 0.00105 s⁻¹ | 11700 M⁻¹ s⁻¹ |  |
| 0352-MN3_T65S (antibody, V domains shown, source: Expi293F, transfected) VH: QVQLQQWGPGLVNPSETLSLTCSVSGGSFATENYYWSWIRQHPGEGLEWIGNIYFSGNSYYNPSLNNRFTISFDTSKNHLSLKLPSVTAADTAVYYCARGTIYFDMSGYRRVDPFHIWGQGTMVIVSS VL: not shown | 6.97 nM | 0.0014 s⁻¹ | 201000 M⁻¹ s⁻¹ | 124 nM | 0.0017 s⁻¹ | 13700 M⁻¹ s⁻¹ |  |
| 0354-MN3_T65V (antibody, V domains shown, source: Expi293F, transfected) VH: QVQLQQWGPGLVNPSETLSLTCSVSGGSFATENYYWSWIRQHPGEGLEWIGNIYFSGNVYYNPSLNNRFTISFDTSKNHLSLKLPSVTAADTAVYYCARGTIYFDMSGYRRVDPFHIWGQGTMVIVSS VL: not shown | 292 nM | 0.00118 s⁻¹ | 4030 M⁻¹ s⁻¹ | 67.6 nM | 0.00153 s⁻¹ | 22700 M⁻¹ s⁻¹ |  |
| 0371-N3_T65S (antibody, V domains shown, source: Expi293F, transfected) VH: QVQLQQWGPGLVNPSETLSLTCSVSGGSFATENYYWSWIRQHPGEGLEWIGNIYFSGNSYYNPSLNNRFTISFDTSKNHLSLKLPSVTAADTAVYYCARGTIYFDRSGYRRVDPFHIWGQGTMVIVSS VL: not shown | 592 nM | 0.000157 s⁻¹ | 265 M⁻¹ s⁻¹ | 108 nM | 0.00113 s⁻¹ | 10400 M⁻¹ s⁻¹ |  |
| 0346-MN3_T65L (antibody, V domains shown, source: Expi293F, transfected) VH: QVQLQQWGPGLVNPSETLSLTCSVSGGSFATENYYWSWIRQHPGEGLEWIGNIYFSGNLYYNPSLNNRFTISFDTSKNHLSLKLPSVTAADTAVYYCARGTIYFDMSGYRRVDPFHIWGQGTMVIVSS VL: not shown | 3320 nM | 0.000421 s⁻¹ | 127 M⁻¹ s⁻¹ | 64.2 nM | 0.00252 s⁻¹ | 39200 M⁻¹ s⁻¹ |  |
| 0358-N3_T65D (antibody, V domains shown, source: Expi293F, transfected) VH: QVQLQQWGPGLVNPSETLSLTCSVSGGSFATENYYWSWIRQHPGEGLEWIGNIYFSGNDYYNPSLNNRFTISFDTSKNHLSLKLPSVTAADTAVYYCARGTIYFDRSGYRRVDPFHIWGQGTMVIVSS VL: not shown |  |  | 174 M⁻¹ s⁻¹ | 68.8 nM | 0.000857 s⁻¹ | 12500 M⁻¹ s⁻¹ |  |
| 0363-N3_T65I (antibody, V domains shown, source: Expi293F, transfected) VH: QVQLQQWGPGLVNPSETLSLTCSVSGGSFATENYYWSWIRQHPGEGLEWIGNIYFSGNIYYNPSLNNRFTISFDTSKNHLSLKLPSVTAADTAVYYCARGTIYFDRSGYRRVDPFHIWGQGTMVIVSS VL: not shown | 71 nM | 2.3e-05 s⁻¹ | 324 M⁻¹ s⁻¹ | 1580 nM | 0.00106 s⁻¹ | 673 M⁻¹ s⁻¹ |  |
| 0381-YN3_T65H (antibody, V domains shown, source: Expi293F, transfected) VH: QVQLQQWGPGLVNPSETLSLTCSVSGGSFATENYYWSWIRQHPGEGLEWIGNIYFSGNHYYNPSLNNRFTISFDTSKNHLSLKLPSVTAADTAVYYCARGTIYFDYSGYRRVDPFHIWGQGTMVIVSS VL: not shown | 663 nM | 0.00016 s⁻¹ | 242 M⁻¹ s⁻¹ | 8040 nM | 0.00217 s⁻¹ | 269 M⁻¹ s⁻¹ |  |
| 0362-N3_T65H (antibody, V domains shown, source: Expi293F, transfected) VH: QVQLQQWGPGLVNPSETLSLTCSVSGGSFATENYYWSWIRQHPGEGLEWIGNIYFSGNHYYNPSLNNRFTISFDTSKNHLSLKLPSVTAADTAVYYCARGTIYFDRSGYRRVDPFHIWGQGTMVIVSS VL: not shown | 318 nM | 0.00046 s⁻¹ | 1450 M⁻¹ s⁻¹ | 378 nM | 0.00114 s⁻¹ | 3020 M⁻¹ s⁻¹ |  |
| 0344-MN3_T65I (antibody, V domains shown, source: Expi293F, transfected) VH: QVQLQQWGPGLVNPSETLSLTCSVSGGSFATENYYWSWIRQHPGEGLEWIGNIYFSGNIYYNPSLNNRFTISFDTSKNHLSLKLPSVTAADTAVYYCARGTIYFDMSGYRRVDPFHIWGQGTMVIVSS VL: not shown | 1670 nM | 0.0005 s⁻¹ | 299 M⁻¹ s⁻¹ | 151 nM | 0.0026 s⁻¹ | 17200 M⁻¹ s⁻¹ |  |
| N3-1_Q (antibody, V domains shown, IgG1) VH: QVQLQQWGPGLVNPSETLSLTCSVSGGSFATENYYWSWIRQHPGEGLEWIGNIYFSGNTYYNPSLNNRFTISFDTSKNHLSLKLPSVTAADTAVYYCARGTIYFDQSGYRRVDPFHIWGQGTMVIVSS VL: not shown |  |  |  |  |  |  | kon [3]: 1000 M⁻¹ s⁻¹; Kd [4]: 771 nM; koff [4]: 0.00666 s⁻¹; kon [4]: 8640 M⁻¹ s⁻¹; Kd [5]: 483 nM; koff [5]: 0.00403 s⁻¹; kon [5]: 8360 M⁻¹ s⁻¹; Kd [6]: 291 nM; koff [6]: 0.00336 s⁻¹; kon [6]: 11500 M⁻¹ s⁻¹; Kd [7]: 4800 nM; koff [7]: 0.015 s⁻¹; kon [7]: 3120 M⁻¹ s⁻¹ |
| 0349-MN3_T65P (antibody, V domains shown, source: Expi293F, transfected) VH: QVQLQQWGPGLVNPSETLSLTCSVSGGSFATENYYWSWIRQHPGEGLEWIGNIYFSGNPYYNPSLNNRFTISFDTSKNHLSLKLPSVTAADTAVYYCARGTIYFDMSGYRRVDPFHIWGQGTMVIVSS VL: not shown | 2.97 nM | 0.00117 s⁻¹ | 392000 M⁻¹ s⁻¹ | 8260 nM | 0.00219 s⁻¹ | 265 M⁻¹ s⁻¹ |  |
| 0378-YN3_T65E (antibody, V domains shown, source: Expi293F, transfected) VH: QVQLQQWGPGLVNPSETLSLTCSVSGGSFATENYYWSWIRQHPGEGLEWIGNIYFSGNEYYNPSLNNRFTISFDTSKNHLSLKLPSVTAADTAVYYCARGTIYFDYSGYRRVDPFHIWGQGTMVIVSS VL: not shown | 0.186 nM | 0.000168 s⁻¹ | 906000 M⁻¹ s⁻¹ | 1740 nM | 0.000439 s⁻¹ | 253 M⁻¹ s⁻¹ |  |
| 0351-MN3_T65R (antibody, V domains shown, source: Expi293F, transfected) VH: QVQLQQWGPGLVNPSETLSLTCSVSGGSFATENYYWSWIRQHPGEGLEWIGNIYFSGNRYYNPSLNNRFTISFDTSKNHLSLKLPSVTAADTAVYYCARGTIYFDMSGYRRVDPFHIWGQGTMVIVSS VL: not shown | 3.87 nM | 0.000806 s⁻¹ | 208000 M⁻¹ s⁻¹ | 175 nM | 0.00187 s⁻¹ | 10700 M⁻¹ s⁻¹ |  |
| 0380-YN3_T65G (antibody, V domains shown, source: Expi293F, transfected) VH: QVQLQQWGPGLVNPSETLSLTCSVSGGSFATENYYWSWIRQHPGEGLEWIGNIYFSGNGYYNPSLNNRFTISFDTSKNHLSLKLPSVTAADTAVYYCARGTIYFDYSGYRRVDPFHIWGQGTMVIVSS VL: not shown | 77.3 nM | 0.000311 s⁻¹ | 4020 M⁻¹ s⁻¹ | 4980 nM | 0.00218 s⁻¹ | 438 M⁻¹ s⁻¹ |  |
| 0329-LN3_T65N (antibody, V domains shown, source: Expi293F, transfected) VH: QVQLQQWGPGLVNPSETLSLTCSVSGGSFATENYYWSWIRQHPGEGLEWIGNIYFSGNNYYNPSLNNRFTISFDTSKNHLSLKLPSVTAADTAVYYCARGTIYFDLSGYRRVDPFHIWGQGTMVIVSS VL: not shown | 187 nM | 0.000519 s⁻¹ | 2780 M⁻¹ s⁻¹ | 98.7 nM | 0.000925 s⁻¹ | 9380 M⁻¹ s⁻¹ |  |
| N3-1_V (antibody, V domains shown, IgG1) VH: QVQLQQWGPGLVNPSETLSLTCSVSGGSFATENYYWSWIRQHPGEGLEWIGNIYFSGNTYYNPSLNNRFTISFDTSKNHLSLKLPSVTAADTAVYYCARGTIYFDVSGYRRVDPFHIWGQGTMVIVSS VL: not shown |  |  |  |  |  |  | Kd [3]: 3.78 nM; koff [3]: 0.00023 s⁻¹; kon [3]: 60900 M⁻¹ s⁻¹; Kd [4]: 1470 nM; koff [4]: 0.0163 s⁻¹; kon [4]: 11100 M⁻¹ s⁻¹; Kd [5]: 704 nM; koff [5]: 0.00681 s⁻¹; kon [5]: 9670 M⁻¹ s⁻¹; Kd [6]: 421 nM; koff [6]: 0.00542 s⁻¹; kon [6]: 12900 M⁻¹ s⁻¹; Kd [7]: 1340 nM; koff [7]: 0.00726 s⁻¹; kon [7]: 5410 M⁻¹ s⁻¹ |
| 0367-N3_T65N (antibody, V domains shown, source: Expi293F, transfected) VH: QVQLQQWGPGLVNPSETLSLTCSVSGGSFATENYYWSWIRQHPGEGLEWIGNIYFSGNNYYNPSLNNRFTISFDTSKNHLSLKLPSVTAADTAVYYCARGTIYFDRSGYRRVDPFHIWGQGTMVIVSS VL: not shown | 1.09 nM | 0.000175 s⁻¹ | 160000 M⁻¹ s⁻¹ | 642 nM | 0.00176 s⁻¹ | 2740 M⁻¹ s⁻¹ |  |
